Data taken from patent US20240383992A1 (ORICELL THERAPEUTICS, published 2024).

T1: BCMA expressed on MM1s cells (UniProt Q02223 1-184, limits assumed)
T1 sequence (looked up): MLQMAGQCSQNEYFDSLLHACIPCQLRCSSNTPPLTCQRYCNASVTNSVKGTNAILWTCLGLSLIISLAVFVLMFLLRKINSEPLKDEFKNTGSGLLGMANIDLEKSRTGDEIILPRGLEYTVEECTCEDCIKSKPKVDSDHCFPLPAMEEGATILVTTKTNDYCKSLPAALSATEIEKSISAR


Molecular target: T1, BCMA expressed on MM1s cells
Assay: cell-based or functional assay

Row | Binder | killing toxicity against the target cell at effector-to-target ratio 1:1 | killing toxicity against the target cell at effector-to-target ratio 3:1
1 | hBCMA-17 CAR (other) EIVLTQSPATLSLSPGERATLSCRASESVSVSGIHLLHWYQQKPGQAPRLLIYLGRNRAAGIPARFSGSGSGTDFTLTISSLEPEDAAIYYCLQSRRFPRHFGQGTKLEIKGSTSGSGKPGSGEGSTKGQVQLVQSGAEVKKPGASVKVSCKASGYTFADYTINWVRQATGQGLEWMGWINTETREPTYAYDFRSRFTFTLNTSISTAYLELSSLRSEDTAVYYCARDIRYVMDYWGQGTLVTVSSTTTPAPRPPTPAPTIASQPLSLRPEACRPAAGGAVHTRGLDFACDIYIWAPLAGTCGVLLLSLVITLYCKRGRKKLLYIFKQPFMRPVQTTQEEDGCSCRFPEEEEGGCELRVKFSRSADAPAYQQGQNQLYNELNLGRREEYDVLDKRRGRDPEMGGKPRRKNPQEGLYNELQKDKMAEAYSEIGMKGERRRGKGHDGLYQGLSTATKDTYDALHMQALPPR | > 20% | > 70%
2 | hBCMA-19 CAR (other) EIVLTQSPATLSLSPGERATLSCRASESVSVPGISFIHWYQQKPGQAPRLLIYLGRNRAAGIPARFSGSGSGTDFTLTISSLEPEDAAIYYCLQSRRFPRHFGQGTKLEIKGSTSGSGKPGSGEGSTKGQVQLVQSGAEVKKPGASVKVSCKASGYTFADYTINWVRQATGQGLEWMGWINTETREPAYAYDFRGRFTFTLNTSISTAYLELSSLRSEDTAVYYCARDIRYVMDYWGQGTLVTVSSTTTPAPRPPTPAPTIASQPLSLRPEACRPAAGGAVHTRGLDFACDIYIWAPLAGTCGVLLLSLVITLYCKRGRKKLLYIFKQPFMRPVQTTQEEDGCSCRFPEEEEGGCELRVKFSRSADAPAYQQGQNQLYNELNLGRREEYDVLDKRRGRDPEMGGKPRRKNPQEGLYNELQKDKMAEAYSEIGMKGERRRGKGHDGLYQGLSTATKDTYDALHMQALPPR | > 20% | > 70%
3 | hBCMA-22 CAR (other) EIVLTQSPATLSLSPGERATLSCRASESVSVPGISFIHWYQQKPGQAPRLLIYLGSNRPSGIPARFSGSGSGTDFTLTISSLEPEDAAIYYCLQSRRFPRHFGQGTKLEIKGSTSGSGKPGSGEGSTKGQVQLVQSGAEVKKPGASVKVSCKASGYTFADYTINWVRQATGQGLEWMGWINTETREPAYAYDFRGRFTFTLNTSISTAYLELSSLRSEDTAVYYCARDIRYVMDYWGQGTLVTVSSTTTPAPRPPTPAPTIASQPLSLRPEACRPAAGGAVHTRGLDFACDIYIWAPLAGTCGVLLLSLVITLYCKRGRKKLLYIFKQPFMRPVQTTQEEDGCSCRFPEEEEGGCELRVKFSRSADAPAYQQGQNQLYNELNLGRREEYDVLDKRRGRDPEMGGKPRRKNPQEGLYNELQKDKMAEAYSEIGMKGERRRGKGHDGLYQGLSTATKDTYDALHMQALPPR | > 20% | > 70%
4 | hBCMA-20 CAR (other) EIVLTQSPATLSLSPGERATLSCRASESVSVPGISFIHWYQQKPGQAPRLLIYLGRNRAAGIPARFSGSGSGTDFTLTISSLEPEDAAIYYCLQSRRFPRHFGQGTKLEIKGSTSGSGKPGSGEGSTKGQVQLVQSGAEVKKPGASVKVSCKASGYTFADYTINWVRQATGQGLEWMGWINTETREPTYAYDFRSRFTFTLNTSISTAYLELSSLRSEDTAVYYCARDIRYVMDYWGQGTLVTVSSTTTPAPRPPTPAPTIASQPLSLRPEACRPAAGGAVHTRGLDFACDIYIWAPLAGTCGVLLLSLVITLYCKRGRKKLLYIFKQPFMRPVQTTQEEDGCSCRFPEEEEGGCELRVKFSRSADAPAYQQGQNQLYNELNLGRREEYDVLDKRRGRDPEMGGKPRRKNPQEGLYNELQKDKMAEAYSEIGMKGERRRGKGHDGLYQGLSTATKDTYDALHMQALPPR | > 20% | > 70%
5 | hBCMA-23 CAR (other) EIVLTQSPATLSLSPGERATLSCRASESVSVPGISFIHWYQQKPGQAPRLLIYLGSNRPSGIPARFSGSGSGTDFTLTISSLEPEDAAIYYCLQSRRFPRHFGQGTKLEIKGSTSGSGKPGSGEGSTKGQVQLVQSGAEVKKPGASVKVSCKASGYTFADYTINWVRQATGQGLEWMGWINTETREPTYAYDFRSRFTFTLNTSISTAYLELSSLRSEDTAVYYCARDIRYVMDYWGQGTLVTVSSTTTPAPRPPTPAPTIASQPLSLRPEACRPAAGGAVHTRGLDFACDIYIWAPLAGTCGVLLLSLVITLYCKRGRKKLLYIFKQPFMRPVQTTQEEDGCSCRFPEEEEGGCELRVKFSRSADAPAYQQGQNQLYNELNLGRREEYDVLDKRRGRDPEMGGKPRRKNPQEGLYNELQKDKMAEAYSEIGMKGERRRGKGHDGLYQGLSTATKDTYDALHMQALPPR | > 20% | > 70%
